Data on seven molecules can be found in patent US20220204649A1 (SYSMEX, published 2022).

The chains are these.
B1: 68, 70, 72 variant of humanized anti-HER2 antibody (Fab) (Fab, V domains shown)
VH: EVQLVESGGGLVQPGGSLRLSCAASGFNIKDTYIHWVRQAPGKGLEWVARIYPTNGYTRYADSVKGRFRIRARTSKNTAYLQMNSLRAEDTAVYYCSRWGGDGFYAMDYWGQGTLVTVSS
VL: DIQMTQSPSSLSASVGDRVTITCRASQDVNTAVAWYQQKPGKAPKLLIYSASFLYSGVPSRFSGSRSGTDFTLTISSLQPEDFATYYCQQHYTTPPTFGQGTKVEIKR
B2: 72, 77, 79 variant of humanized anti-HER2 antibody (Fab) (Fab, V domains shown)
VH: EVQLVESGGGLVQPGGSLRLSCAASGFNIKDTYIHWVRQAPGKGLEWVARIYPTNGYTRYADSVKGRFTISARTSKNRARLQMNSLRAEDTAVYYCSRWGGDGFYAMDYWGQGTLVTVSS
VL: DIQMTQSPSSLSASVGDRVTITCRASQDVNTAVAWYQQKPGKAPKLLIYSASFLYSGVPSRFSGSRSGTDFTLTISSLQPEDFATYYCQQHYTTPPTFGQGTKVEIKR
notes: also called Heavy chain 72, 77, 79 variant
B3: 84, 85, 87 variant of humanized anti-HER2 antibody (Fab) (Fab, V domains shown)
VH: EVQLVESGGGLVQPGGSLRLSCAASGFNIKDTYIHWVRQAPGKGLEWVARIYPTNGYTRYADSVKGRFTISADTSKNTAYLQMNSLRRRDRAVYYCSRWGGDGFYAMDYWGQGTLVTVSS
VL: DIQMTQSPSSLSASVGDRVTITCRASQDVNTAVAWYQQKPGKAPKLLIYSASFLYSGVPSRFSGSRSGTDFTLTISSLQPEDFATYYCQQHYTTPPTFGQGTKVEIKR
B4: 79, 81, 82A variant of humanized anti-HER2 antibody (Fab) (Fab, V domains shown)
VH: EVQLVESGGGLVQPGGSLRLSCAASGFNIKDTYIHWVRQAPGKGLEWVARIYPTNGYTRYADSVKGRFTISADTSKNTARLRMRSLRAEDTAVYYCSRWGGDGFYAMDYWGQGTLVTVSS
VL: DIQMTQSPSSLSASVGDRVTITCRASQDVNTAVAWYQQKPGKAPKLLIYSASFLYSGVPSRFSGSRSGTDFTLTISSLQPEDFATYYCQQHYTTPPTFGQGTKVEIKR
B5: 74, 75, 77 variant of humanized anti-HER2 antibody (Fab) (Fab, V domains shown)
VH: EVQLVESGGGLVQPGGSLRLSCAASGFNIKDTYIHWVRQAPGKGLEWVARIYPTNGYTRYADSVKGRFTISADTRRNRAYLQMNSLRAEDTAVYYCSRWGGDGFYAMDYWGQGTLVTVSS
VL: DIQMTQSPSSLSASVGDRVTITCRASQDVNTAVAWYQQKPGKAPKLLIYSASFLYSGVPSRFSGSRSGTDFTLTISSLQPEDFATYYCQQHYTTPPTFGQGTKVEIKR
B6: light chain 63, 65, 67/heavy chain 82B, 83, 84 variant of the anti-HER2 antibody (Fab, V domains shown)
VH: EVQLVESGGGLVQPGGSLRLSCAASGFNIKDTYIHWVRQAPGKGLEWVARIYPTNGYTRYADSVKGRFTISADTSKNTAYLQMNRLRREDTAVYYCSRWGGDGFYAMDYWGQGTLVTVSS
VL: DIQMTQSPSSLSASVGDRVTITCRASQDVNTAVAWYQQKPGKAPKLLIYSASFLYSGVPSRFRGRRRGTDFTLTISSLQPEDFATYYCQQHYTTPPTFGQGTKVEIKR
B7: light chain 63, 65, 67/heavy chain 72, 77, 79 variant of the anti-HER2 antibody (Fab, V domains shown)
VH: EVQLVESGGGLVQPGGSLRLSCAASGFNIKDTYIHWVRQAPGKGLEWVARIYPTNGYTRYADSVKGRFTISARTSKNRARLQMNSLRAEDTAVYYCSRWGGDGFYAMDYWGQGTLVTVSS
VL: DIQMTQSPSSLSASVGDRVTITCRASQDVNTAVAWYQQKPGKAPKLLIYSASFLYSGVPSRFRGRRRGTDFTLTISSLQPEDFATYYCQQHYTTPPTFGQGTKVEIKR

One test has as its target T1, HER2 (UniProt P04626 23-652, limits assumed).
T1 construct: also called antigen of the anti-HER2 antibody
The test can be described thus: SPR (Biacore 8K), as in Example 1. As to the method: (§1) Affinity of the prepared variants was measured using Biacore (registered trademark) 8K (GE Healthcare) in the same manner as in Example 1.
A general note: Surface plasmon resonance follows binding to a sensor surface in real time, without labels.
As for B1, the Kd (usually the free concentration of one partner at which half of the binding sites on the other are occupied at equilibrium, for simple one-to-one binding) was found to be 20.8 pM.
For B2, the Kd was found to be 5.05 pM.
Molecule B3 registered a Kd of 21.1 pM.
B4 came in with a Kd of 33.8 pM.
B5 gave a Kd of 44.3 pM.

A further test addresses T1, HER2. The test can be described thus: SPR (Biacore 8K), Example 3, as in Example 1. On the procedure:
as §1
B2 displayed a Kd of 32.1 pM.
The molecule B6 displayed a Kd of 35.7 pM.
In the case of B7, binding was characterised by a dissociation constant (Kd) of 12.6 pM.
